# T1: VEGF (UniProt P15692-9 27-147)
# T1 construct: also called VEGF121
# T1 sequence (looked up): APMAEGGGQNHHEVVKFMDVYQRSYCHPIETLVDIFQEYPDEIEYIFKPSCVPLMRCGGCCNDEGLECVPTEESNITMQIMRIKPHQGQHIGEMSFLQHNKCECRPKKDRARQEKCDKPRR
# Assays:
# VEGF [1] = molecular target: T1, VEGF; assay: bridging ELISA of exchange reaction mix, 1.3 µM input; VEGF coated, digoxygenin-Cy5 detection; highest value = 100%; binder has dig arm, no VEGF arm
# VEGF [2] = molecular target: T1, VEGF; assay: bridging ELISA, VEGF coated, digoxygenin-Cy5 detection; binder has dig arm, no VEGF arm
# VEGF [3] = molecular target: T1, VEGF; assay: bridging ELISA of exchange reaction mix, 1.3 µM input; VEGF coated, biocytinamid-Cy5 detection; highest value = 100%; binder has neither arm
binder,measurement,setting,value
"anti-dig/anti-fluos bispecific antibody (exchange reaction: dig MHCFcRP-knob-E357K row x fluos MHCFcRP-hole-K370E column) (bispecific antibody, human IgG1, not shown: small tags and cut ends, Product of the 2/3-IgG exchange reaction, tested as reaction mix; human IgG1 knob-into-hole format; also called dig/fluos bsAb) heavy 1: QVQLVESGGGLVKPGGSLRLSCAASGFTFSDYAMSWIRQAPGKGLEWVSSINIGATYIYYADSVKGRFTISRDNAKNSLYLQMNSLRAEDTAVYYCARPGSPYEYDKAYYSMAYWGQGTTVTVSSASTKGPSVFPLAPSSKSTSGGTAALGCLVKDYFPEPVTVSWNSGALTSGVHTFPAVLQSSGLYSLSSVVTVPSSSLGTQTYICNVNHKPSNTKVDKKVEPKSC light 1: not shown heavy 2: not shown light 2: DIVMTQTPLSLSVTPGQPASISCKSSQSLVHSNGNTYLRWYLQKPGQSPKVLIYKVSNRVSGVPDRFSGSGSGTDFTLKISRVEAEDVGVYYCSQSTHVPWTFGQGTKLEIKRTVAAPSVFIFPPSDEQLKSGTASVVCLLNNFYPREAKVQWKVDNALQSGNSQESVTEQDSKDSTYSLSSTLTLSKADYEKHKVYACEVTHQGLSSPVTKSFNRGEC",relative signal intensity,VEGF [1],6.7%
same,binding result,VEGF [2],no binding (tested: 1.3 µM input molecule concentration)
same,relative signal intensity,VEGF [3],9.1%

# Reference: patent US20250361326A1 (Hoffmann-La Roche, published 2025)
